In patent EP0621339B1 (TAKARA SHUZO CO. LTD., dated 2001):

Molecular target: HA molecule (haemagglutinin) of A/Okuda/57 (H2N2) (influenza A virus, H2N2 subtype, strain A/Okuda/57)
Assay: cell-based or functional assay

monoclonal antibody C179
HI (hemagglutination inhibition titer) (fold dilution of the ascites fluid): < 32
